Test: soluble on expression in E. coli; label from the status in PepcDB or PDB records

Soluble on expression in E. coli, not soluble:
MAVSAYFHIPFCAHICHYCDFNKVFAAGQPIDDYLRAMDKEMAWTAAEFGSQLKTLFIGGGTPTVLEPAQLGCLLASIHRHFQFDPQTAEFTVEANPDGLTKEKLAILRDAGVNRLSLGVQTFDDQLLQTIGRTHRRGDVIRAVALAREVGFQNISIDVMYGLPGQTLEQFTADLEAAFSLHVPHLSAYSLILEPRTIFYNEWRKGRLRLPGEEMEAEMYEAAMEQMAAAGYRQYEISNYALPGFESRHNLTYWNNEEYYGIGAGAHSYIDGVRRANIGPIRHYISAIERGQWPHRDVRRLTTREQMEEEMFLGLRKTEGVSKACFRQKFGRDLHDIFGAAIRREIENGRLEETETHIRLTKRGKLLGNEVFAAFLGEM, MEEDIVRLFYKGSEIILIGTSHISAESADLVRKTIQEENPDTICIEWDQKRYKKNIHPDEWDDTDIVKIIKNKQFPVFIFGVIYKLFQKKVSQDMNSLVGKEFVVAVDESKKLNIKFYLIDRDSSLTFKRAWRMLNFREKVKLPYAFGKIFEGAEETEEEVQNLLESENFEPVFEELKESYPNLWEVFVTERDDYLATKIQNTANGKTVAVLGKAHLKGVSDRLKNNQKSDLQKLEIIPPKK, MAHHHHHHMRRIQLAFLTKLWQRRNCGSFNERALVQRTCEHIYCSSSAREQLRQLIHESSVENALRHLGEFSNDVSVLKGSAWLGQLSKAPDVVGRIAVILPQFEKWYVARKAPEKVTMHEPWDWYPKARFMRRRFVFHYGPTNSGKTHAALETLVKAKSGVYCAPLKALAAQVWKRIDASVPCDLLIGDERRFGGGAEHVSCTVEMTPIDYQIDVGVIDEVQMIADRDRGWAWTRALLGLPAREIHLCGEERAIPLIRKVLYKTHELQRLEVVPHKRLVPLEVSPSLDGDLRRIENGDTLVCFSRRAIFDMKKKLENISGMAPHCIYGSMPFSVREAQADAFNNGTRDVIEGKSGKKHVLISTDAIAYGLNMSIERIIFTSMRKFDGKQMVTLPQATILQVAGRAGRFGVLRSHKFGRCTTLDSNDFAVLCEAVNSRLPSLQKAGLLPTAEVLELYIRLREAEEGGRVTENNLASFYQRMREFSECCQASDLFFPCDLSRSLLQVAKELEAVTDLSLSDRILFCYVPLNDRGKETYDLLRAFGHDHAAGRHVVLRIDEEFERLVKQCDLVCSGDTRRAHQVLTRMEHLYRVAEMYCWLAWRFGKTFVHLETATALKERAALKMEEILQHL, MGSDKIHHHHHHMLPLPPYPLPNSIMWTQIDTHISQVTGEKFQSQQRRSVGGGCINQGYAVSNGEITYFVKLNLASQVAMFEAEALGLKEMLATASIRIPQPICWGVAENSSYIVLEWLELGNGNSNTSLRDAPRWEEMGRKLAAMHQASSSQGFGWKINNTIGSTPQINTWTADWTEFYIKHRLGYQFQLARRRGGSFPQQEKLLAAIRELLTHQVQPSLVHGDLWGGNAGCTASGEPVIFDPATYFGDREVDIAMTELFGGFPAAFYKGYNEVFPLDAGYEQRKTLYNLYHILNHFNLFGGGYASQANRMIDQILR, MGSDKIHHHHHHMDSNIDVEILSILSEASAPVGAKIIADSLKDRGYDIGERAVRYHLKVLDENSLTKKLGYSGREITEKGIEELEKANISFRIGSVFSQVIEKLYLSDFPSKVLINTAKFEGDYKTIKEMVLRSFEAGYSVGDYLNIKKKGNTVSVETLCSITFDNFLLKNGIIPTPEYGGIVKFEDYEPVNFEGVIDFKSSSIDPLVAFIMQGKTDVIGVIENGEGLVPANFRVIPKSSEKQFETILKKDMLNSVLAYGTENVLGMNLNPEQIGVVLVGGLTPLCVPHESGYTADISAATQLKDISSMEKKTKGFLEAKKKKGKFKVTPVLSKMLSKMQTINYDIEDKKGNVVVNTAKIPIEYKEEAINALKDSYENKLAISDRLKVECDDKFLNAYTICSLTVDGVFLKNKIPVIPYYGGILEVKADKKRFIEAIDYEGTSLDPHEVFFNKADGKNYILAGIRKVPMSASEKLIELNEKLGWNSIIEIGRPNNDICGVRVEKCMFGITTIGGTNPFANIRKNNIPVEMKTLHKSIDYSELTHYDDI, MEEETIKVENLDDSITIDRNPVPLAFCARPTLPAKIGMKTEDGIVDQLLDLVDPITVVNPTEIRQAPSLKSFGCDTESEFEFSGDDSDFENINDLRAGALDSDEEFDRLVKFSAKIIEKTHKSEYPDENGKKQRKPKKSQKTRNVHEYDDMPPLENLSIECKGQLLEFGFVSKVVDCQVVIISTCTEVLDFDSFLFDQKGNALGQIYDIFGQVKNPQYVIRFNSCEEASMIPIDMKVYYAPTEEQFSKTPFKGLNLAAANRDAIKSLNRRIDHQEAVAKAGETMAQVGIGSDVEFSDDEAEKEFKRTTYTQPASQMSRGFDSNRGRKRDRRGGQKVRFSAQNPPARSDNLGPIPQQPSAPPPPARPAQSTESNPYAEFGCHSGFNGRFGI, MSKAFVDGLLQSSKVVVFSKSYCPYCHKARAALESVNVKPDALQWIEIDERKDCNEIQDYLGSLTGARSVPRVFINGKFFGGGDDTAAGAKNGKLAALLKETGAL, MSLNTQDFLAGYTKRFVDNKEEDMSLDEYLELCKTDPTAYANPAERLLMAIGEPELIDTRHDPVLSRIFSNKIIHHYEVFKDFYGMEEPIEQIVGFLKHAAQGLEETKQVLYLLGPVGGGKSSIAEKLKDLMERIPFYAIKGSPVFESPLSLFNPLEDGELLRERFGIPTRYLRYLMSPWAVKRLQEYNGDISKFRVIKVKPSRLKQIAIAKTEPGDENNQDISSLVGKVDIRKLEEFSQDDPDAYSYSGGLCRANRGLLEFVEMFKAPIKVLHPLLTATQEGNYNATEGLSAIPFEGIILAHSNESEWQSFRNNEGHHHHHH, MTIPLWWQNGVIYQIYPKSFQDTTGSGTGDLRGVTQRLDYLQRLGVDAIWLTPFYISPQVDNGYDVANYTAIDPTYGTLDDFDELVAQAKARGIRIILDMVFNHTSTQHAWFREALNKESPYRQFYIWRDGTPDVCPNNWQSKFGGSAWRWHSQSEQYYLHLFAPEQADLNWENPAVRAELKKVCEFWADRGVDGLRLDVVNLIAKDQNFPDDPTGDGRRFYTDGPRAHTFLREMNRDVFTPRNLMTVGEMSSTTLENCQQYAALSGDELSMTFNFHHLKVDYPNGEKWTLAKPDYVALKALFRHWQQGMHNVAWNALFWCNHDQPRIVSRFGDEGEYRVPAAKMLAMALHGMQGTPYIYQGEEIGMTNPHFTRITDYRDVESHNMFAALRAAGRDPDELLAILASKSRDNSRTPMQWDNGKNAGFTQGEPWISLCDNYTEVNVEAALRDENSVFYTYQKLIALRKTQPVLIWGDYQDLLPDSPSVWCYRRQWQGQILLVVANLSNQCQEWHPPHIKGQWQALLHNYGEVASQPAAMTLRPFEAIWWLQR, VRAPGVRAADGAGRVVLYLHGGAFVMCGPNSHSRIVNALSGFAESPVLIVDYRLIPKHSLGMALDDCHDAYQWLRARGYRPEQIVLAGDSAGGYLALALAQRLQCDDEKPAAIVAISPLLQLAKGPKQDHPNIGTDAMFPARAFDALAAWVRAAAAKNMVDGRPEDLYEPLDHIESSLPPTLIHVSGSEVLLHDAQLGAGKLAAAGVCAEVRVWPGQAHLFQLATPLVPEATRSLRQIGQFIRDATADSSLSPVHRSRYVAGSPRAASRGAFGQSPI, MAGDPNSMKRKPAVAGLFYPSRRDELIEQIRMCFLDKRIGPGKLPGPVETKLQNPIGLVSPHAGYIYSGPVAAWGFLEAVKFGEPSVVVIIGPNHTGLGRPVGVWPEGEWETPLGTVPVNERAVEIVLSNSRYAEEDFMSHIREHSIEVQIPFLQFVFGEVSIVPICLMDQSPAVAEDLASALAKLVAEFPGVLIIASTDLNHYEDQRTTLRKDSYIIEAIEGMDPSLLYEYLVREDISMCGYGGVATLLNMDFENVRILKHATSGDVSGDTLEVVGYLSAILFLEHHHHHH

Soluble on expression in E. coli, soluble:
AQSVPPGDINTQPSQKIVFNAPYDDKHTYHIKITNAGGRRIGWAIKTTNMRRLSVDPPCGVLDPKEKVLMAVSCDTFNAATERLNNDRITIEWTNTPDGAAKQFRREWFQGDGMVRRKNLPIEYNL, GPLGSEVMGPVEAAPEYRVIVDANNLTVEIENELNIIHKFIRDKYSKRFPELESLVPNALDYIRTVKELGNSLDKCKNNENLQQILTNATIMVVSVTASTTQGQQLSEEELERLEEACDMALELNASKHRIYEYVESRMSFIAPNLSIIIGASTAAKIMGVAGGLTNLSKMPACNIMLLGAQRKTLSGFSSTSVLPHTGYIYHSDIVQSLPPDLRRKAARLVAAKCTLAARVDSFHESTEGKVGYELKDEIERKFDKWQE, MSTTKAFKMTYTNAGNKKTEQVIQATEPLTILLMGVDTGGEGRGTSDSWNGNSDSQILMTLNPKTHTTTMVSIERDTMTNILDADGNIVSKQKMNAAYPLGYNSGSSSDGLKNAVSYAMKTISAQTGINIDSFVTVNFDGLVNMVDNVGGIDINNTTGQTLYISDTEPQYTAKVPPGKQHINGDQALVYTRDRHHLSNGDYGRAAHQREVIAALMKKILALDNITRYEQFLNEASKDFRTNIPINASTITSLLGYKDCFNKVVSIQYEGVGEMVDGASYQFMPTDIYLAMQNIMKKSLDESTVTTLPSSLITYESVFGSGTAPFYYLPSATVTEKGKSTVTYGVDTQGNLVSLNSKNSGNYVSTSGGSVQSDSSSGSSSSSSDSTATSSSDSTYQQDNTYNDGYNNSNDSTTSSYGTDDTNTGNYGYGTSQLEHHHHHH, MGLDKGKQQTAKKPGFNCKPFEFEISSTKFQIPNDKPLKYTLKCTADEKQDVIIQVHSVFFEIVGARRKHGVTSQEFHVLGKNEEMTFEIGLKDLTNVSYDNFEHAQLASAAGFITFTHYKSSRDDDSDASWGPNKNLLIVITDGMEEVGFWKKKLSVETETDEMKKVKEEFGVKLEGEKKYEEIDKMEMDRMRKEIGKNQSARDDGFAPIKDMHKKYLKEKYECVIS, SKNPEEAAEGKQRIHLRPGSLRGAAPAKLHLLPCDVLVSRPAPVDRFFTPAVRHDADGLQASFRGRGLRGEEVAVPPGFAGFVMVTEEKGEGLIGKLNFSGDAEDKADEAQEPLERDFDRLIGATGSFSHFTLWGLETVPGPDAKVHRALGWPSLAAAIHAQVPED, MKRSNTVRLVVSKEQHEVLKRLGIATAKCWNEVNWLRMKQYKEGKRVDFGITEKAVYEKYKSVLRVNAQQVARKNAEDWRSFFSLTREKKEGKLPSWFKPRPPGYWKDGRLIVIIRNDRYTVDERNRVVYLKDFNLSLKFKGRLKWHGKQGRLEIIYDEARKIWYAHIPVEVETEKVKEGIKASIDLGIVNLATVYVEDGSWYLFKGGSALSHYENYSKRITIVQKTLHRHRQRRSRRLKLLHEKRSRFLKHALNSMVRRIMEILREKNVGEVVVGYPKEIAKHHGNKLTVNFWNYSYIIKRLEDIGEELGIKVITVDEAYTSKTCSLCGEAHEDGRVKRGLFVCPRTRKAINADLNGAINILHIPESRGSEGNFHRGIGVIGLKTQPVTLSDLSKIKNHYNYSISDYTILHYIQPLEHHHHHH, MDLFADAPLTLPDADLRYLPHWLDAPLASAWLLRLEQETPWEQPILRIHGEEHPTPRLVAWYGDPDAAYRYSGQVHRPLPWTALLGEIRERVEREVGQRVNGVLLNYYRDGQDSMGWHSDDEPELRRDPLVASLSLGGSRRFDLRRKGQTRIAHSLELTHGSLLVMRGATQHHWQHQVAKTRRSCMPRLNLTFRLVYPQPLEHHHHHH, MGKKKNKKTEVQQPDPMRKNWIMENMDSGVIYLLESWLKAKSQETGKEISDIFANAVEFNIVLKDWGKEKLEETNTEYQNQQRKLRKTYIEYYDREMK
